Fewer inactive variants are shown than the library holds.
Experiments:
biotinyl-Trp-oxazolone = assay: self-aminoacylation, catalytic enhancement (BWO) (fold over background); higher = more active; k-Seq, kA / k0A0; sequences stand for … in GGGAAUGGAUCCACAUCUACGAAUUC…UUCACUGCAGACUUGACGAAGCUG
Outline: (§1)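 Mutagenized RNA pools with a 21-nt variable region (0.43 μM) reacted with each biotinyl-aminoacyl-oxazolone at 2–1250 μM. Reactions ran in 50 μL HEPES/NaCl/KCl/MgCl2/CaCl2 buffer with 5% acetonitrile, pH 6.9–7.0, for 90 minutes at room temperature. Streptavidin-captured RNA was quantified by triplicate qPCR and Illumina sequencing, and per-sequence fraction reacted was fit to a pseudo-first-order model with 1000 bootstraps. Catalytic enhancement is median kA divided by the uncatalyzed rate, the low-activity peak of a bimodal Gaussian fit.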

biotinyl-Phe-oxazolone = assay: self-aminoacylation, catalytic enhancement (BFO) (fold over background); higher = more active; k-Seq, kA / k0A0; sequences stand for … in GGGAAUGGAUCCACAUCUACGAAUUC…UUCACUGCAGACUUGACGAAGCUG
Outline: as §1

biotinyl-Ile-oxazolone = assay: self-aminoacylation, catalytic enhancement (BIO) (fold over background); higher = more active; k-Seq, kA / k0A0; sequences stand for … in GGGAAUGGAUCCACAUCUACGAAUUC…UUCACUGCAGACUUGACGAAGCUG
Outline: as §1

biotinyl-Met-oxazolone = assay: self-aminoacylation, catalytic enhancement (BMO) (fold over background); higher = more active; k-Seq, kA / k0A0; sequences stand for … in GGGAAUGGAUCCACAUCUACGAAUUC…UUCACUGCAGACUUGACGAAGCUG
Outline: as §1

biotinyl-Val-oxazolone = assay: self-aminoacylation, catalytic enhancement (BVO) (fold over background); higher = more active; k-Seq, kA / k0A0; sequences stand for … in GGGAAUGGAUCCACAUCUACGAAUUC…UUCACUGCAGACUUGACGAAGCUG
Outline: as §1

biotinyl-Leu-oxazolone = assay: self-aminoacylation, catalytic enhancement (BLO) (fold over background); higher = more active; k-Seq, kA / k0A0; sequences stand for … in GGGAAUGGAUCCACAUCUACGAAUUC…UUCACUGCAGACUUGACGAAGCUG
Outline: as §1

| Sequence | self-aminoacylation (biotinyl-Trp-oxazolone) | self-aminoacylation (biotinyl-Phe-oxazolone) | self-aminoacylation (biotinyl-Ile-oxazolone) | self-aminoacylation (biotinyl-Met-oxazolone) | self-aminoacylation (biotinyl-Val-oxazolone) | self-aminoacylation (biotinyl-Leu-oxazolone) |
| --- | --- | --- | --- | --- | --- | --- |
| UUUACCCUGGUCAUCGCGUGA [Fam2.1 aminoacylation ribozyme variant] | 19 | 128 | 7.82 | 18.9 | 9.57 | 16.9 |
| UUUACCCUGGUCAUCGUGUGA [Fam2.1 aminoacylation ribozyme variant] | 3.71 | 15.3 | 1.66 | 2.98 | 2.06 | 3.11 |
| UUUACCCUGGUCUUCGAGUGA [Fam2.1 aminoacylation ribozyme variant] | 5.27 | 13.9 | 2.46 | 3.61 | 2.79 | 3.58 |
| UUUACGCUGGUCAUCGAGUGA [Fam2.1 aminoacylation ribozyme variant] | 6.37 | 10.2 | 3.56 | 4.46 | 4.07 | 4.78 |
| UUUACUCUGGUCAUCGAGUGA [Fam2.1 aminoacylation ribozyme variant] | 6.74 | 7.42 | 3.99 | 5.53 | 3.58 | 5.43 |
| UUUCACCUAGGCCAUCGGGUG [Fam2.2 aminoacylation ribozyme variant] | 4.57 | 20.8 | 3.27 | 3.71 | 4 | 4.34 |
| UUUCACCUAGGGCAUCGGGUG [Fam2.2 aminoacylation ribozyme variant] | 3.56 | 26 | 3.17 | 3.15 | 3.9 | 3.49 |
| UUUCACCUAGGUCAUCGAGUG [Fam2.2 aminoacylation ribozyme variant] | 4.82 | 16.4 | 5.72 | 7.16 | 4.45 | 9.37 |
| UUUCACCUAGGUCAUCGGGAG [Fam2.2 aminoacylation ribozyme variant] | 2.02 | 1.4 | 1.68 | 1.73 | 1.35 | 1.82 |
| UUUCACCUAGGUCAUCGGGCG [Fam2.2 aminoacylation ribozyme variant] | 4.57 | 4.77 | 3.06 | 4.77 | 3.19 | 5.21 |
| UUUCACCUAGGUCAUCGGGUA [Fam2.2 aminoacylation ribozyme variant] | 21.2 | 184 | 14.7 | 27.4 | 13.9 | 36.1 |
| UUUCACCUAGGUCAUCUGGUG [Fam2.2 aminoacylation ribozyme variant] | 2.5 | 9.3 | 1.76 | 1.88 | 1.86 | 2.22 |
| UUUCACCUAGGUCCUCGGGUG [Fam2.2 aminoacylation ribozyme variant] | 5.68 | 35.6 | 3.82 | 4.17 | 4.22 | 4.92 |
| UUUCACCUAGGUCUUCGGGUG [Fam2.2 aminoacylation ribozyme variant] | 5.4 | 29 | 4.04 | 4.63 | 4.51 | 5.06 |
| UUUCACCUAGGUGAUCGGGUG [Fam2.2 aminoacylation ribozyme variant] | 5.69 | 24.3 | 3.55 | 3.5 | 3.67 | 4.15 |
| UUUCACCUAGGUUAUCGGGUG [Fam2.2 aminoacylation ribozyme variant] | 4.62 | 19.6 | 2.92 | 3.71 | 2.93 | 3.72 |
| UUUCACGUAGGUCAUCGGGUG [Fam2.2 aminoacylation ribozyme variant] | 4.06 | 32.2 | 2.89 | 4.24 | 4.25 | 3.88 |
| UUUCACUUAGGUCAUCGGGUG [Fam2.2 aminoacylation ribozyme variant] | 6.64 | 46.7 | 4.22 | 6.17 | 4.19 | 6.73 |
| UUUGCCCUGGUCAUCGAGUGA [Fam2.1 aminoacylation ribozyme variant] | 46.1 | 294 | 16.5 | 45.5 | 18.1 | 41 |

From the supplement of paper PMC9233669
